Measurements: patent US11692025 (UNIVERSITY COURT OF THE UNIVERSITY OF ABERDEEN, dated 2023)

Tests used:
[1] = biological target: T1, CSA (monkey, UniProt A2V9Z4 25-608, limits assumed); assay: BIAcore, mean ± SE
T1 construct: also called monkey albumin

[2] = biological target: T2, human serum albumin (human, UniProt P02768 25-609); assay: BIAcore, mean ± SE
T2 construct: also called HSA; HAS

[3] = biological target: T3, rat serum albumin (rat, UniProt P02770 25-608); assay: BIAcore, mean ± SE
T3 construct: also called RSA

[4] = biological target: T4, mouse serum albumin (mouse, UniProt P07724 25-608); assay: BIAcore, mean ± SE
T4 construct: also called MSA

[5] = biological target: T2, human serum albumin; assay: BIAcore, pH 7.4, monomeric 6xHis-tagged VNAR
[6] = biological target: T3, rat serum albumin; assay: BIAcore, pH 7.4, monomeric 6xHis-tagged VNAR
[7] = biological target: T4, mouse serum albumin; assay: BIAcore, pH 7.4, monomeric 6xHis-tagged VNAR
[8] = biological target: T5, hen egg lysozyme (hen, UniProt P00698 19-147); assay: BIAcore
T5 construct: also called HEL

[9] = biological target: T2, human serum albumin; assay: BIAcore, pH 6.0, monomeric 6xHis-tagged VNAR
[10] = biological target: T3, rat serum albumin; assay: BIAcore, pH 6.0, monomeric 6xHis-tagged VNAR
[11] = biological target: T4, mouse serum albumin; assay: BIAcore, pH 6.0, monomeric 6xHis-tagged VNAR
[12] = biological target: T2, human serum albumin; assay: phage and periprep ELISA on HSA; purified 6xHis-tagged VNAR
Experimental: The resultant mutational phage display libraries were rescued and selected twice using Nunc Maxisorp immunotubes. Following each pan, two 96-well plates of individual colonies were picked with a QPix2 XT (Genetix, San Jose, Calif., USA). Binding as monoclonal phage and periprep was evaluated by ELISA. All samples were processed with a Perkin Elmer MiniTrak robotic liquid handling system (Waltham, Mass., USA).

[13] = biological target: T5, hen egg lysozyme; assay: Biacore, monomeric VNAR
[14] = biological target: T2, human serum albumin; assay: BIAcore
[15] = biological target: T4, mouse serum albumin; assay: BIAcore

T4 sequence (P07724 25-608 limits assumed): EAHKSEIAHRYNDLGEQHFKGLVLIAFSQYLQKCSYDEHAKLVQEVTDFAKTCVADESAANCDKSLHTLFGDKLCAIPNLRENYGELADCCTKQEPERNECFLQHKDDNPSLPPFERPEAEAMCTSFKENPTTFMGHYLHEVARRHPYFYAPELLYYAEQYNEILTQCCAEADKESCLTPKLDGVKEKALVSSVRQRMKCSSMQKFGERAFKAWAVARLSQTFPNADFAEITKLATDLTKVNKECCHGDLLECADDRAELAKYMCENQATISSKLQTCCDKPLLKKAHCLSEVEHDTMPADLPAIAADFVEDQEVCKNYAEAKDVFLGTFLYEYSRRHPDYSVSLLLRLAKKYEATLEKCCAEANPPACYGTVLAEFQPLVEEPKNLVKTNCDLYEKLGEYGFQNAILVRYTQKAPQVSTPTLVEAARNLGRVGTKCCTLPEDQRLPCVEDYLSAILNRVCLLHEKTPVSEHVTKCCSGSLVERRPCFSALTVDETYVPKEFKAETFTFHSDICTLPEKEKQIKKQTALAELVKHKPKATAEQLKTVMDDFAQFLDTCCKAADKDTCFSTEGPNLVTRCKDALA
T5 sequence (P00698 19-147): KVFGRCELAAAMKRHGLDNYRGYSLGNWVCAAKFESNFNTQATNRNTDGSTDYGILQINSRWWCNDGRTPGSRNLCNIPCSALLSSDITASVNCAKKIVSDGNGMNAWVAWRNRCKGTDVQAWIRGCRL
T3 sequence (P02770 25-608 limits assumed): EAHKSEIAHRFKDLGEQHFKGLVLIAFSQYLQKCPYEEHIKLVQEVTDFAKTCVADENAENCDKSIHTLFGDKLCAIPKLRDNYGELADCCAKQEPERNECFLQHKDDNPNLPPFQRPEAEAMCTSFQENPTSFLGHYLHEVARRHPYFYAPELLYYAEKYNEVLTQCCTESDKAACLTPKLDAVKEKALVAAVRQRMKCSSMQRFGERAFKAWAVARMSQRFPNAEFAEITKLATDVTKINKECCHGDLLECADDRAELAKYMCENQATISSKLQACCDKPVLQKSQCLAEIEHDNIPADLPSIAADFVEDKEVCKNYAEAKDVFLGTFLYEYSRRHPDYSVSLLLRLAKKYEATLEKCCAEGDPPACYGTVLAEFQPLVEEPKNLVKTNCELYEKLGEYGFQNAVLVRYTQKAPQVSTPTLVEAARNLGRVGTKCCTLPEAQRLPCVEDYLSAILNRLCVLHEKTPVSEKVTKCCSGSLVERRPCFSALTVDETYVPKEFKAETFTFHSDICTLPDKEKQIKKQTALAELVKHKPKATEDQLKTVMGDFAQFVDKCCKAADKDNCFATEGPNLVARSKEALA
T1 sequence (A2V9Z4 25-608 limits assumed): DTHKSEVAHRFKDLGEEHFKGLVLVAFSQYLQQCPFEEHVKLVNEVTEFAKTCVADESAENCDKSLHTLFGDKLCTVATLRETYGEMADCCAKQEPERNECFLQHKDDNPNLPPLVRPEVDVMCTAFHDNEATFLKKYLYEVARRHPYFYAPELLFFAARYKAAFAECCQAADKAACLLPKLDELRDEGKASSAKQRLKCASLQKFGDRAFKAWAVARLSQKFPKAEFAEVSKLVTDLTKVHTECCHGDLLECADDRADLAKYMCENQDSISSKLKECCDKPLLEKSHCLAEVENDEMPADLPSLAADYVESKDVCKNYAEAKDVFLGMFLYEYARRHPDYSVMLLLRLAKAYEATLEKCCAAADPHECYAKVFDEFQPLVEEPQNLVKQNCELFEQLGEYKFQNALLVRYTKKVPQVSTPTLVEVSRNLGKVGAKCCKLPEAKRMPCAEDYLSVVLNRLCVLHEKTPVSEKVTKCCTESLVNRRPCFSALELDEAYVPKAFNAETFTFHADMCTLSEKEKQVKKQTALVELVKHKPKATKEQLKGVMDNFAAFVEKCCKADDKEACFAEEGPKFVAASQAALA

B1: 2V-E06 (VNAR, part only; not given: naive VNAR 2V and linker, not shown: small tags and cut ends)
chain, part: TRVDQTPRTATRETGESLTINCVLTDTSYPLYSTYWYRKNPGSSNKEQISISGRYVESVNKGTKSFSLRIKDLTVADSATYICRAMGTNIWTGDGAGTVLTVNAAAHHHHHH
[1]
  Kd: 0.91 nM
  koff: 0.000682 s⁻¹
  kon: 820000 M⁻¹ s⁻¹
[2]
  Kd: 0.721 nM
  koff: 0.000641 s⁻¹
  kon: 953000 M⁻¹ s⁻¹
[3]
  Kd: 5.95 nM
  koff: 0.00344 s⁻¹
  kon: 623000 M⁻¹ s⁻¹
[4]
  Kd: 2.49 nM
  koff: 0.00214 s⁻¹
  kon: 862000 M⁻¹ s⁻¹

B2: E06-AAA-6xHis (VNAR)
VNAR: TRVDQTPRTATRETGESLTINCVLTDTSYPLYSTYWYRKNPGSSNKEQISISGRYVESVNKGTKSFSLRIKDLTVADSATYICRAMGTNIWTGDGAGTVLTVNA
notes: Shark VNAR single domain against serum albumin; also called wild-type E06; monomeric 6xHis-tagged E06
[5]
  Kd: 0.19 nM
  koff: 0.000655 s⁻¹
  kon: 3.48e+06 M⁻¹ s⁻¹
[6]
  Kd: 1.45 nM
  koff: 0.0032 s⁻¹
  kon: 2.21e+06 M⁻¹ s⁻¹
[7]
  Kd: 0.83 nM
  koff: 0.0018 s⁻¹
  kon: 2.18e+06 M⁻¹ s⁻¹
[8]
  binding result: no binding
[1]
  Kd: 0.219 nM
  koff: 0.000584 s⁻¹
  kon: 2.68e+06 M⁻¹ s⁻¹
[2]
  Kd: 0.189 nM
  koff: 0.000583 s⁻¹
  kon: 3.09e+06 M⁻¹ s⁻¹
[3]
  Kd: 1.34 nM
  koff: 0.00301 s⁻¹
  kon: 2.24e+06 M⁻¹ s⁻¹
[4]
  Kd: 0.74 nM
  koff: 0.00171 s⁻¹
  kon: 2.32e+06 M⁻¹ s⁻¹
[9]
  Kd: 0.14 nM
  koff: 0.00159 s⁻¹
  kon: 1.12e+07 M⁻¹ s⁻¹
[10]
  Kd: 0.34 nM
  koff: 0.00433 s⁻¹
  kon: 1.26e+07 M⁻¹ s⁻¹
[11]
  Kd: 0.33 nM
  koff: 0.00323 s⁻¹
  kon: 9.85e+06 M⁻¹ s⁻¹

B3: BD12 (VNAR)
VNAR: TRVDQSPSSLSASVGDRVTITCVLTDTSYPLYSTYWYRKNPGSSNKEQISISGRYSESVNKGTNSFTLTISSLQPEDFATYYCRAMGTNIWTGDGAGTKVEIK
notes: Variant of huE06 v1.10 from error-prone PCR
[12]
  binding result: binds

B4: BE4 (VNAR)
VNAR: TRVDQSPSSLSASVGDRVTITCVLTDTSYSLYSTYWYRKNPGSSNKEQISISGRYSESVNKGTKSFTLTISSLQPEDFATYYCRAMGTNIWTGDGAGTKVEIK
notes: as for B3
[12]
  binding result: binds

B5: 5A7IVabc-AAA-6xHis (VNAR)
VNAR: ARVDQSPSSLSASVGDRVTITCVLRDASYALGSTCWYQQKPGKAPKSISKGGRYSESVNSGSKSFTLTISSLQPEDFATYYCGLGVAGGYCDYALCSSRYAECGQGTKVEIKA
notes: Humanized 5A7 VNAR, monomeric; also called humanized 5A7-IVabc
[13]
  Kd: 14.8 nM
  koff: 0.173 s⁻¹
  kon: 1.17e+07 M⁻¹ s⁻¹

B6: 5A7-AAA-6xHis (VNAR)
VNAR: ARVDQTPRSVTKETGESLTINCVLRDASYALGSTCWYRKKSGEGNEESISKGGRYVETVNSGSKSFSLRINDLTVEDGGTYRCGLGVAGGYCDYALCSSRYAECGDGTAVTVNA
notes: Type I shark VNAR against hen egg lysozyme, monomeric; also called parental 5A7; anti-HEL 5A7
[14]
  binding result: no binding
[15]
  binding result: no binding
